Where a chain is given by its changes, count along the chain named.
T1: human glypican-1 (GPC1) (human, UniProt P35052 24-530)
T1 construct: also called human GPC1; HuGPC1
T1 sequence (looked up): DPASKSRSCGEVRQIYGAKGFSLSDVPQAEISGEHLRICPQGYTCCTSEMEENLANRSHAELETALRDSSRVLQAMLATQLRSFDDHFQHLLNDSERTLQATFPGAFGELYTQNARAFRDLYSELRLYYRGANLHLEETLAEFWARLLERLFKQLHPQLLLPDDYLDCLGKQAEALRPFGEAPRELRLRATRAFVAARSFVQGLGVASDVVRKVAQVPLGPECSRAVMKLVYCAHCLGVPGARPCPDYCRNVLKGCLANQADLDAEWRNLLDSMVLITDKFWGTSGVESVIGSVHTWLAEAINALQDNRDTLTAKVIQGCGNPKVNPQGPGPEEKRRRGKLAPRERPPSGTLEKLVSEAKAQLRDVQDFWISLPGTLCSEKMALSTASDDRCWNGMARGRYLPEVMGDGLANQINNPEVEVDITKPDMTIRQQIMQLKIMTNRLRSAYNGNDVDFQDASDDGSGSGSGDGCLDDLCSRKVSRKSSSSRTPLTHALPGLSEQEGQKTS

T2: cell-surface GPC1 on GPC1-expressing tumor cells (2B9 KLM, H8, T3M4) (UniProt P35052 24-530, limits assumed)
T2 sequence (looked up): T1 sequence (looked up)

T3: human GPC2 (human, UniProt Q8N158 24-554, limits assumed)
T3 sequence (looked up): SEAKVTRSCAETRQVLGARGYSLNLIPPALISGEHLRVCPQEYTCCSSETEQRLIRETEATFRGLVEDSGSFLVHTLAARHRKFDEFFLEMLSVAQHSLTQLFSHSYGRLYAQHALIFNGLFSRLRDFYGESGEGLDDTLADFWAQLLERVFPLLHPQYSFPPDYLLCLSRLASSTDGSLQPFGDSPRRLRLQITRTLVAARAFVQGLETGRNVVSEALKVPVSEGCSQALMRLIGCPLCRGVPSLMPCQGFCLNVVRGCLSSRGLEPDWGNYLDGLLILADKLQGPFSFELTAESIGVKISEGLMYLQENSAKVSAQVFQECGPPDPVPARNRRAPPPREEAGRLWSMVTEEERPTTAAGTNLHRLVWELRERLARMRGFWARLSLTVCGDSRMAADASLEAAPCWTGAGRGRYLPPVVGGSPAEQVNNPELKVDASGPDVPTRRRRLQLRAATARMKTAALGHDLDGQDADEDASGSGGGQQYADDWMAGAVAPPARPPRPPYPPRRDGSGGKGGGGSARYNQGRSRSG

T4: human GPC6 (human, UniProt Q9Y625 24-529, limits assumed)
T4 sequence (looked up): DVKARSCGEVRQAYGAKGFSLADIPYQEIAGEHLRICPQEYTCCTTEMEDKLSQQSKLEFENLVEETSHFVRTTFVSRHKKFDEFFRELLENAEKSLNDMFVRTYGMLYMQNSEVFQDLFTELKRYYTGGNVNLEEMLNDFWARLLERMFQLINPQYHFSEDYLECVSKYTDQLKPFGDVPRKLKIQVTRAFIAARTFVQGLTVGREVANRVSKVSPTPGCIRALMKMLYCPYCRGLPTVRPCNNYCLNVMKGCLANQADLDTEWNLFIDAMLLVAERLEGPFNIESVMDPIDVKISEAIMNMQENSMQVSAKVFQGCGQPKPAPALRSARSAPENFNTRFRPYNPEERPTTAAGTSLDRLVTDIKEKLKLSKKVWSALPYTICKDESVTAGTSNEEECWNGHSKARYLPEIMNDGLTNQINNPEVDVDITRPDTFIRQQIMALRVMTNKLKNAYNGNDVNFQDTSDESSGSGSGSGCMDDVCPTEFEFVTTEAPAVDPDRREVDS

T5: mouse GPC1 (mouse, UniProt Q9QZF2 24-529, limits assumed)
T5 construct: also called MsGPC1
T5 sequence (looked up): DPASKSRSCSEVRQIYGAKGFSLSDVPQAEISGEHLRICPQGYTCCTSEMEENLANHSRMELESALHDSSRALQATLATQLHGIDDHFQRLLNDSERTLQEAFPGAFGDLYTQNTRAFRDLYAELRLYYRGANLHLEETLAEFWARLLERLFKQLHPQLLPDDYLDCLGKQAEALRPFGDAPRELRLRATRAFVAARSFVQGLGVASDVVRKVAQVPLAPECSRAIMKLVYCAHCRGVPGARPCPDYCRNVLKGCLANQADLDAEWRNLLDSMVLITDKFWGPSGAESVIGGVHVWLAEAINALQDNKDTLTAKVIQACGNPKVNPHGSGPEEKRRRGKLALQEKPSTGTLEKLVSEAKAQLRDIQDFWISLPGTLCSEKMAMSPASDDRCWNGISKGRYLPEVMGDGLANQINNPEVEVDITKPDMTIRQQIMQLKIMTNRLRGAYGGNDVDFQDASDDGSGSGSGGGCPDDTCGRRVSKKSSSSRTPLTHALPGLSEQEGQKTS

T6: human GPC5 (printed as 'GPCS') (human, UniProt P78333 25-554, limits assumed)
T6 construct: The text prints 'GPCS'
T6 sequence (looked up): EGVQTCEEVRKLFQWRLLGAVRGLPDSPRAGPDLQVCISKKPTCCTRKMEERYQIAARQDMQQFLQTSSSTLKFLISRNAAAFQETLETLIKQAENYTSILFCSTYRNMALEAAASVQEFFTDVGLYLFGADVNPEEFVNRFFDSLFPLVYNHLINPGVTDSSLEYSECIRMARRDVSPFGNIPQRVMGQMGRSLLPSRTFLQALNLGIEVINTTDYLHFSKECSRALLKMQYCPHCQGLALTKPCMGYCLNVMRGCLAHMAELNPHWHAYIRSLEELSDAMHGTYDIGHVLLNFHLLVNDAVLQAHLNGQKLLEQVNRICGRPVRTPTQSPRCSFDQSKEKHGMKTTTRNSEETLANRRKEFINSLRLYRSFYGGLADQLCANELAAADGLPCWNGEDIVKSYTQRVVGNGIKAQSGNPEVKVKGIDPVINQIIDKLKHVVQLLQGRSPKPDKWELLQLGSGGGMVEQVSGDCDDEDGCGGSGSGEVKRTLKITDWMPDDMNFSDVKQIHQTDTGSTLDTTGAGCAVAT

B1: HM2-LR immunotoxin (other)
chain: MEVQLQQSGAELVRPGASVKLSCTASGFNIKDDYMHWVKQRPEQGLEWIGWIDPENGDTEYASKFQGKATITADTSSNTAYLQLSSLTSEDTAVYYCTRSSVGYWGQGTTLTVSSGGGGSGGGGSGGGGSDVVMTQTPLSLPVSLGDQASISCRSSQSLVHSNGNTYLHWYLQKPGQSPKLLIYKVSNRFSGVPDRFSGSGSGTYFTLKISRVEAEDLGVYFCSQRTHVPYTFGGGTKLEIKKLKASGGRHRQPRGWEQLGGGGGSPTGAEFLGDGGDVSFSTRGTQNWTVERLLQAHRQLEERGYVFVGYHGTFLEAAQSIVFGGVRARSQDLDAIWRGFYIAGDPALAYGYAQDQEPDARGRIRNGALLRVYVPRSSLPGFYRTSLTLAAPEAAGEVERLIGHPLPLRLDAITGPEEEGGRLETILGWPLAERTVVIPSAIPTDPRNVGGDLDPSSIPDKEQAISALPDYASQPGKPPREDLK
B2: D4-AAA-D4-LR immunotoxin (other)
chain: MQVQLVESGGGLVQPGGSLRLSCVASGYSYSIGYMAWFRQAPGKERAWVASRYTGDGGAVFDDAVKGRFTTSQESAGNTFDLQMDSLKPEDTAMYYCAAKGPGFGRWEYWGRGTQVTVSSAAAQVQLVESGGGLVQPGGSLRLSCVASGYSYSIGYMAWFRQAPGKERAWVASRYTGDGGAVFDDAVKGRFTTSQESAGNTFDLQMDSLKPEDTAMYYCAAKGPGFGRWEYWGRGTQVTVSSKLKASGGRHRQPRGWEQLGGGGGSPTGAEFLGDGGDVSFSTRGTQNWTVERLLQAHRQLEERGYVFVGYHGTFLEAAQSIVFGGVRARSQDLDAIWRGFYIAGDPALAYGYAQDQEPDARGRIRNGALLRVYVPRSSLPGFYRTSLTLAAPEAAGEVERLIGHPLPLRLDAITGPEEEGGRLETILGWPLAERTVVIPSAIPTDPRNVGGDLDPSSIPDKEQAISALPDYASQPGKPPREDLK
notes: also called bivalent D4 immunotoxin; D4-D4-LR
B3: D4-GGS-D4-LR immunotoxin (other)
chain: B2 chain with A121G, A122G, A123S
notes: as for B2
B4: D4-LR immunotoxin (other)
chain: MQVQLVESGGGLVQPGGSLRLSCVASGYSYSIGYMAWFRQAPGKERAWVASRYTGDGGAVFDDAVKGRFTTSQESAGNTFDLQMDSLKPEDTAMYYCAAKGPGFGRWEYWGRGTQVTVSSKLKASGGRHRQPRGWEQLGGGGGSPTGAEFLGDGGDVSFSTRGTQNWTVERLLQAHRQLEERGYVFVGYHGTFLEAAQSIVFGGVRARSQDLDAIWRGFYIAGDPALAYGYAQDQEPDARGRIRNGALLRVYVPRSSLPGFYRTSLTLAAPEAAGEVERLIGHPLPLRLDAITGPEEEGGRLETILGWPLAERTVVIPSAIPTDPRNVGGDLDPSSIPDKEQAISALPDYASQPGKPPREDLK
B5: camel single-domain antibody D4 (VHH)
VHH: QVQLVESGGGLVQPGGSLRLSCVASGYSYSIGYMAWFRQAPGKERAWVASRYTGDGGAVFDDAVKGRFTTSQESAGNTFDLQMDSLKPEDTAMYYCAAKGPGFGRWEYWGRGTQVTVSS
notes: also called D4 antibody; VHH antibody D4
B6: mouse monoclonal antibody HM2 (antibody, V domains shown)
VH: EVQLQQSGAELVRPGASVKLSCTASGFNIKDDYMHWVKQRPEQGLEWIGWIDPENGDTEYASKFQGKATITADTSSNTAYLQLSSLTSEDTAVYYCTRSSVGYWGQGTTLTVSS
VL: DVVMTQTPLSLPVSLGDQASISCRSSQSLVHSNGNTYLHWYLQKPGQSPKLLIYKVSNRFSGVPDRFSGSGSGTYFTLKISRVEAEDLGVYFCSQRTHVPYTFGGGTKLEIK
notes: Mouse hybridoma antibody; also called HM2 antibody; HM2 anti-GPC1 monoclonal antibody

Assays:
[1] = target: T1, human glypican-1 (GPC1); test: Octet kinetic analysis (column Kdis)
[2] = target: T1, human glypican-1 (GPC1); test: Octet kinetic analysis
[3] = target: T1, human glypican-1 (GPC1); test: Octet analysis
[4] = target: T2, cell-surface GPC1 on GPC1-expressing …
[5] = target: T1, human glypican-1 (GPC1); test: Octet kinetic analysis; remark: listed apart in the source
[6] = target: T1, human glypican-1 (GPC1); test: ELISA on GPC1, OD450 against concentration
[7] = target: T1, human glypican-1 (GPC1); test: Octet kinetic analysis; remark: listed apart in the source
[8] = target: T7, human GPC3 (human, UniProt P51654 25-559, limits assumed); test: monoclonal phage ELISA
T7 sequence (P51654 25-559 limits assumed): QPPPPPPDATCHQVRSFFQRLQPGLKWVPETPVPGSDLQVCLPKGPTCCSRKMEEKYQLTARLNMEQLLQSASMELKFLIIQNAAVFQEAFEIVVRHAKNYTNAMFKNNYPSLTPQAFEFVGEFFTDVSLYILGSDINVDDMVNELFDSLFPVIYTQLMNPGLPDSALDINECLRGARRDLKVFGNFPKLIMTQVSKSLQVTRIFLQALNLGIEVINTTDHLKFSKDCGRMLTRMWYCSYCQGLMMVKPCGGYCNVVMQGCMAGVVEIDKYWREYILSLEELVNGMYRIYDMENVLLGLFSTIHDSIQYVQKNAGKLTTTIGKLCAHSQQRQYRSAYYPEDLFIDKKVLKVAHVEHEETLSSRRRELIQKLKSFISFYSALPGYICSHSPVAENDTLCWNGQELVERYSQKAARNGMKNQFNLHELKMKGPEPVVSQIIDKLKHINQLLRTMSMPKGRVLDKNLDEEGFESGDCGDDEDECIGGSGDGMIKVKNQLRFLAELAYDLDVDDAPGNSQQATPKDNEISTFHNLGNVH

[9] = target: T3, human GPC2; test: monoclonal phage ELISA
[10] = target: T4, human GPC6; test: monoclonal phage ELISA
[11] = target: T5, mouse GPC1; test: monoclonal phage ELISA
[12] = target: T6, human GPC5 (printed as 'GPCS'); test: monoclonal phage ELISA
[13] = target: T7, human GPC3; test: ELISA
[14] = target: T3, human GPC2; test: ELISA
[15] = target: T4, human GPC6; test: ELISA
[16] = target: T6, human GPC5 (printed as 'GPCS'); test: ELISA

Binder | koff [1] | Kd [2] | kon [2] | Kd [3] | EC50 [4] | Kd [5] | EC50 [6] | Kd [7] | also measured
B1 | 0.00206 s⁻¹ | 6.94 nM | 297000 M⁻¹ s⁻¹ | 6.9 nM |  |  |  |  | 
B2 |  |  |  |  | 1.9 nM | 0.09 nM | 0.2 nM |  | 
B3 |  |  |  |  | 3.8 nM | 0.08 nM | 0.1 nM |  | 
B4 | 0.00218 s⁻¹ | 6.25 nM | 350000 M⁻¹ s⁻¹ | 6.3 nM | 8.1 nM |  | 4.3 nM |  | 
B5 |  |  |  |  |  |  |  | 1.3 nM | binding result [8]: no binding; binding result [9]: no binding; binding result [10]: no binding; binding result [11]: binds; binding result [12]: no binding
B6 |  |  |  |  |  |  |  | 1.2 nM | binding result [13]: no binding; binding result [14]: no binding; binding result [15]: no binding; binding result [16]: no binding
